Biological target: mouse synaptosomes (synaptosome preparation carrying the BoNT/A acceptor complex)

Substance: inactivated BoNT/A (toxoid) (from UniProt P0DPI1 2-1296)
- percent inhibition (maximum): 98%
